Measured values as given in patent publication US20210024615A1 (LIVERPOOL SCHOOL OF TROPICAL MEDICINE, published 2021).

B1: dectin-1 (receptor, UniProt Q9BXN2-2 66-201, looked up)
chain: TMGVLSSPCPPNWIIYEKSCYLFSMSLNSWDGSKRQCWQLGSNLLKIDSSNELGFIVKQVSSQPDNSFWIGLSRPQTEVPWLWEDGSTFSSNLFQIRTTATQENPSPNCVWIHVSVIYDQLCSVPSYSICEKKFSM
notes: also called dec-1
B2: MMR (receptor, UniProt P22897 19-1383, looked up)
chain: LLDTRQFLIYNEDHKRCVDAVSPSAVQTAACNQDAESQKFRWVSESQIMSVAFKLCLGVPSKTDWVAITLYACDSKSEFQKWECKNDTLLGIKGEDLFFNYGNRQEKNIMLYKGSGLWSRWKIYGTTDNLCSRGYEAMYTLLGNANGATCAFPFKFENKWYADCTSAGRSDGWLWCGTTTDYDTDKLFGYCPLKFEGSESLWNKDPLTSVSYQINSKSALTWHQARKSCQQQNAELLSITEIHEQTYLTGLTSSLTSGLWIGLNSLSFNSGWQWSDRSPFRYLNWLPGSPSAEPGKSCVSLNPGKNAKWENLECVQKLGYICKKGNTTLNSFVIPSESDVPTHCPSQWWPYAGHCYKIHRDEKKIQRDALTTCRKEGGDLTSIHTIEELDFIISQLGYEPNDELWIGLNDIKIQMYFEWSDGTPVTFTKWLRGEPSHENNRQEDCVVMKGKDGYWADRGCEWPLGYICKMKSRSQGPEIVEVEKGCRKGWKKHHFYCYMIGHTLSTFAEANQTCNNENAYLTTIEDRYEQAFLTSFVGLRPEKYFWTGLSDIQTKGTFQWTIEEEVRFTHWNSDMPGRKPGCVAMRTGIAGGLWDVLKCDEKAKFVCKHWAEGVTHPPKPTTTPEPKCPEDWGASSRTSLCFKLYAKGKHEKKTWFESRDFCRALGGDLASINNKEEQQTIWRLITASGSYHKLFWLGLTYGSPSEGFTWSDGSPVSYENWAYGEPNNYQNVEYCGELKGDPTMSWNDINCEHLNNWICQIQKGQTPKPEPTPAPQDNPPVTEDGWVIYKDYQYYFSKEKETMDNARAFCKRNFGDLVSIQSESEKKFLWKYVNRNDAQSAYFIGLLISLDKKFAWMDGSKVDYVSWATGEPNFANEDENCVTMYSNSGFWNDINCGYPNAFICQRHNSSINATTVMPTMPSVPSGCKEGWNFYSNKCFKIFGFMEEERKNWQEARKACIGFGGNLVSIQNEKEQAFLTYHMKDSTFSAWTGLNDVNSEHTFLWTDGRGVHYTNWGKGYPGGRRSSLSYEDADCVVIIGGASNEAGKWMDDTCDSKRGYICQTRSDPSLTNPPATIQTDGFVKYGKSSYSLMRQKFQWHEAETYCKLHNSLIASILDPYSNAFAWLQMETSNERVWIALNSNLTDNQYTWTDKWRVRYTNWAADEPKLKSACVYLDLDGYWKTAHCNESFYFLCKRSDEIPATEPPQLPGRCPESDHTAWIPFHGHCYYIESSYTRNWGQASLECLRMGSSLVSIESAAESSFLSYRVEPLKSKTNFWIGLFRNVEGTWLWINNSPVSFVNWNTGDPSGERNDCVALHASSGFWSNIHCSSYKGYICKRPKIIDAKPTHELLTTKADTRKMDPSK
B3: clec-4a (receptor, UniProt Q9UMR7 70-237, looked up)
chain: QKYSQLLEKKTTKELVHTTLECVKKNMPVEETAWSCCPKNWKSFSSNCYFISTESASWQDSEKDCARMEAHLLVINTQEEQDFIFQNLQEESAYFVGLSDPEGQRHWQWVDQTPYNESSTFWHPREPSDPNERCVVLNFRKSPKRWGWNDVNCLGPQRSVCEMMKIHL
notes: also called DCIR
B4: Siglec-4 (receptor, UniProt P20916 20-516, looked up)
chain: GHWGAWMPSSISAFEGTCVSIPCRFDFPDELRPAVVHGVWYFNSPYPKNYPPVVFKSRTQVVHESFQGRSRLLGDLGLRNCTLLLSNVSPELGGKYYFRGDLGGYNQYTFSEHSVLDIVNTPNIVVPPEVVAGTEVEVSCMVPDNCPELRPELSWLGHEGLGEPAVLGRLREDEGTWVQVSLLHFVPTREANGHRLGCQASFPNTTLQFEGYASMDVKYPPVIVEMNSSVEAIEGSHVSLLCGADSNPPPLLTWMRDGTVLREAVAESLLLELEEVTPAEDGVYACLAENAYGQDNRTVGLSVMYAPWKPTVNGTMVAVEGETVSILCSTQSNPDPILTIFKEKQILSTVIYESELQLELPAVSPEDDGEYWCVAENQYGQRATAFNLSVEFAPVLLLESHCAAARDTVQCLCVVKSNPEPSVAFELPSRNVTVNESEREFVYSERSGLVLTSILTLRGQAQAPPRVICTARNLYGAKSLELPFQGAHRLMWAKIGP
notes: also called MAG
B5: dectin-2 (receptor, UniProt Q6EIG7 46-209, looked up)
chain: TYGETGKRLSELHSYHSSLTCFSEGTKVPAWGCCPASWKSFGSSCYFISSEEKVWSKSEQNCVEMGAHLVVFNTEAEQNFIVQQLNESFSYFLGLSDPQGNNNWQWIDKTPYEKNVRFWHLGEPNHSAEQCASIVFWKPTGWGWNDVICETRRNSICEMNKIYL
notes: also called dec-2
B6: Siglec-1 (receptor, UniProt Q9BZZ2 20-1641, looked up)
chain: SWGVSSPQDVQGVKGSCLLIPCIFSFPADVEVPDGITAIWYYDYSGQRQVVSHSADPKLVEARFRGRTEFMGNPEHRVCNLLLKDLQPEDSGSYNFRFEISEVNRWSDVKGTLVTVTEEPRVPTIASPVELLEGTEVDFNCSTPYVCLQEQVRLQWQGQDPARSVTFNSQKFEPTGVGHLETLHMAMSWQDHGRILRCQLSVANHRAQSEIHLQVKYAPKGVKILLSPSGRNILPGELVTLTCQVNSSYPAVSSIKWLKDGVRLQTKTGVLHLPQAAWSDAGVYTCQAENGVGSLVSPPISLHIFMAEVQVSPAGPILENQTVTLVCNTPNEAPSDLRYSWYKNHVLLEDAHSHTLRLHLATRADTGFYFCEVQNVHGSERSGPVSVVVNHPPLTPVLTAFLETQAGLVGILHCSVVSEPLATLVLSHGGHILASTSGDSDHSPRFSGTSGPNSLRLEIRDLEETDSGEYKCSATNSLGNATSTLDFHANAARLLISPAAEVVEGQAVTLSCRSGLSPTPDARFSWYLNGALLHEGPGSSLLLPAASSTDAGSYHCRARDGHSASGPSSPAVLTVLYPPRQPTFTTRLDLDAAGAGAGRRGLLLCRVDSDPPARLQLLHKDRVVATSLPSGGGCSTCGGCSPRMKVTKAPNLLRVEIHNPLLEEEGLYLCEASNALGNASTSATFNGQATVLAIAPSHTLQEGTEANLTCNVSREAAGSPANFSWFRNGVLWAQGPLETVTLLPVARTDAALYACRILTEAGAQLSTPVLLSVLYPPDRPKLSALLDMGQGHMALFICTVDSRPLALLALFHGEHLLATSLGPQVPSHGRFQAKAEANSLKLEVRELGLGDSGSYRCEATNVLGSSNTSLFFQVRGAWVQVSPSPELQEGQAVVLSCQVHTGVPEGTSYRWYRDGQPLQESTSATLRFAAITLTQAGAYHCQAQAPGSATTSLAAPISLHVSYAPRHVTLTTLMDTGPGRLGLLLCRVDSDPPAQLRLLHGDRLVASTLQGVGGPEGSSPRLHVAVAPNTLRLEIHGAMLEDEGVYICEASNTLGQASASADFDAQAVNVQVWPGATVREGQLVNLTCLVWTTHPAQLTYTWYQDGQQRLDAHSIPLPNVTVRDATSYRCGVGPPGRAPRLSRPITLDVLYAPRNLRLTYLLESHGGQLALVLCTVDSRPPAQLALSHAGRLLASSTAASVPNTLRLELRGPQPRDEGFYSCSARSPLGQANTSLELRLEGVRVILAPEAAVPEGAPITVTCADPAAHAPTLYTWYHNGRWLQEGPAASLSFLVATRAHAGAYSCQAQDAQGTRSSRPAALQVLYAPQDAVLSSFRDSRARSMAVIQCTVDSEPPAELALSHDGKVLATSSGVHSLASGTGHVQVARNALRLQVQDVPAGDDTYVCTAQNLLGSISTIGRLQVEGARVVAEPGLDVPEGAALNLSCRLLGGPGPVGNSTFAWFWNDRRLHAEPVPTLAFTHVARAQAGMYHCLAELPTGAAASAPVMLRVLYPPKTPTMMVFVEPEGGLRGILDCRVDSEPLASLTLHLGSRLVASSQPQGAPAEPHIHVLASPNALRVDIEALRPSDQGEYICSASNVLGSASTSTYFGVRALHRLHQFQQ
B7: clec-4d (receptor, UniProt Q8WXI8 39-215, looked up)
chain: CLVTHHNFSRCKRGTGVHKLEHHAKLKCIKEKSELKSAEGSTWNCCPIDWRAFQSNCYFPLTDNKTWAESERNCSGMGAHLMTISTEAEQNFIIQFLDRRLSYFLGLRDENAKGQWRWVDQTPFNPRRVFWHKNEPDNSQGENCVVLVYNQDKWAWNDVPCNFEASRICKIPGTTLN
B8: Siglec-3 (receptor, UniProt P20138 18-259, looked up)
chain: DPNFWLQVQESVTVQEGLCVLVPCTFFHPIPYYDKNSPVHGYWFREGAIISRDSPVATNKLDQEVQEETQGRFRLLGDPSRNNCSLSIVDARRRDNGSYFFRMERGSTKYSYKSPQLSVHVTDLTHRPKILIPGTLEPGHSKNLTCSVSWACEQGTPPIFSWLSAAPTSLGPRTTHSSVLIITPRPQDHGTNLTCQVKFAGAGVTTERTIQLNVTYVPQNPTTGIFPGDGSGKQETRAGVVH
B9: CD23 (receptor, UniProt P06734 48-321, looked up)
chain: DTTQSLKQLEERAARNVSQVSKNLESHHGDQMAQKSQSTQISQELEELRAEQQRLKSQDLELSWNLNGLQADLSSFKSQELNERNEASDLLERLREEVTKLRMELQVSSGFVCNTCPEKWINFQRKCYYFGKGTKQWVHARYACDDMEGQLVSIHSPEEQDFLTKHASHTGSWIGLRNLDLKGEFIWVDGSHVDYSNWAPGEPTSRSQGEDCVMMRGSGRWNDAFCDRKLGAWVCDRLATCTPPASEGSAESMGPDSRPDPDGRLPTPSAPLHS
B10: tetrameric human DC-SIGN (receptor, UniProt Q9NNX6 66-404, looked up)
chain: SISQEQSRQDAIYQNLTQLKAAVGELSEKSKLQEIYQELTQLKAAVGELPEKSKLQEIYQELTRLKAAVGELPEKSKLQEIYQELTWLKAAVGELPEKSKMQEIYQELTRLKAAVGELPEKSKQQEIYQELTRLKAAVGELPEKSKQQEIYQELTRLKAAVGELPEKSKQQEIYQELTQLKAAVERLCHPCPWEWTFFQGNCYFMSNSQRNWHDSITACKEVGAQLVVIKSAEEQNFLQLQSSRSNRFTWMGLSDLNQEGTWQWVDGSPLLPSFKQYWNRGEPNNVGEEDCAEFSGNGWNDDKCNLAKFWICKKSAASCSRDEEQFLSPAPATPNPPPA

Target: T1, IgG1-Fc (human, UniProt P01857 104-330 = IgG part)
T1 construct: domain: Fc
Assay: ELISA

Row | Binder | binding result
1 | B1 | no binding
2 | B2 | no binding
3 | B3 | no binding
4 | B4 | no binding
5 | B5 | no binding
6 | B6 | no binding
7 | B7 | no binding
8 | B8 | no binding
9 | B9 | no binding
10 | B10 | no binding
